# Laboratory results from patent US20240424129A1, “RECOMBINANT FUSION ANTIBODY, AND ANTIBODY-DRUG CONJUGATE AND USE THEREOF” (SUN YAT-SEN UNIVERSITY, priority 2021, published 2024).
# Changes are numbered by the printed parent chain.
# B1: Fused VHH3-MMAF (conjugate)
# VHH: EVQLVESGGGLVQAGGSLRLSCAASGITFSINTMGWYRQAPGKQRELVALISSIGDTYYADSVKGRFTISRDNAKNTVYLQMNCLKPEDTAVYYCKRFRTAAQGTDYWGQGTQVTVSSHHHHHHLPETGGGASVSLLDDEL
# B2: Fused VHH4-MMAF (conjugate)
# VHH: EVQLVESGGGLVQAGGSLRLSCAASGITFSINTMGWYRQAPGKQRELVALISSIGDTYYADSVKGRFTISRDNAKNTVYLQMNCLKPEDTAVYYCKRFRTAAQGTDYWGQGTQVTVSSHHHHHHHLPETGGGASSGLDDLDLLGK
# B3: Fused VHH5-MMAF (conjugate)
# VHH: EVQLVESGGGLVQAGGSLRLSCAASGITFSINTMGWYRQAPGKQRELVALISSIGDTYYADSVKGRFTISRDNAKNTVYLQMNCLKPEDTAVYYCKRFRTAAQGTDYWGQGTQVTVSSHHHHHHLPETGGGVQNPSADRNLLDL
# B4: Fused VHH6-MMAF (conjugate)
# VHH: B2 VHH with A133N, S134A, S135L, G136S, L137W, D138L, L140E, D141E, G144C, K145L
# B5: Fused VHH9-MMAF (conjugate)
# VHH: EVQLVESGGGLVQAGGSLRLSCAASGITFSINTMGWYRQAPGKQRELVALISSIGDTYYADSVKGRFTISRDNAKNTVYLQMNCLKPEDTAVYYCKRFRTAAQGTDYWGQGTQVTVSSHHHHHHGGGSDEDLLHI
# B6: Fused VHH10-MMAF (conjugate)
# VHH: EVQLVESGGGLVQAGGSLRLSCAASGITFSINTMGWYRQAPGKQRELVALISSIGDTYYADSVKGRFTISRDNAKNTVYLQMNCLKPEDTAVYYCKRFRTAAQGTDYWGQGTQVTVSSHHHHHHGGGGGSDEDLLHI
# B7: Fused VHH11-MMAF (conjugate)
# VHH: B6 VHH with G129S
# B8: Fused VHH12-MMAF (conjugate)
# VHH: EVQLVESGGGLVQAGGSLRLSCAASGITFSINTMGWYRQAPGKQRELVALISSIGDTYYADSVKGRFTISRDNAKNTVYLQMNCLKPEDTAVYYCKRFRTAAQGTDYWGQGTQVTVSSHHHHHHGGGGSGGGGSGGGGSSDEDLLHI
# B9: Fused VHH13-MMAF (conjugate)
# VHH: B3 VHH with V132S, Q133F, N134H, P135D, S136D, A137S, R139E, N140D, D143H, L144I
# B10: Fused VHH14-MMAF (conjugate)
# VHH: B3 VHH with V132E, Q133E, N134S, P135E, S136E, A137R, R139D, N140H, D143P, L144M
# B11: Fused VHH15-MMAF (conjugate)
# VHH: B1 VHH with A132S, S133Y, V134K, S135Y, L136S, L137K, D138V, D139N, E140K, L141E
# B12: Fused VHH16-MMAF (conjugate)
# VHH: B1 VHH with A132P, S133A, V134A, S135Y, L136R, L137G, D138V, D139G, E140D, L141D
# B13: Fused VHH17-MMAF (conjugate)
# VHH: EVQLVESGGGLVQAGGSLRLSCAASGITFSINTMGWYRQAPGKQRELVALISSIGDTYYADSVKGRFTISRDNAKNTVYLQMNCLKPEDTAVYYCKRFRTAAQGTDYWGQGTQVTVSSHHHHHHLPETGGGRRRSDEDLLHI
# B14: Fused VHH18-MMAF (conjugate)
# VHH: EVQLVESGGGLVQAGGSLRLSCAASGITFSINTMGWYRQAPGKQRELVALISSIGDTYYADSVKGRFTISRDNAKNTVYLQMNCLKPEDTAVYYCKRFRTAAQGTDYWGQGTQVTVSSHHHHHHLPETGGGRRLRSDEDLLHI
# B15: Fused VHH19-MMAF (conjugate)
# VHH: B3 VHH with V132R, Q133R, N134R, P135R, S136K, A137S, R139E, N140D, D143H, L144I
# B16: Fused VHH20-MMAF (conjugate)
# VHH: EVQLVESGGGLVQAGGSLRLSCAASGITFSINTMGWYRQAPGKQRELVALISSIGDTYYADSVKGRFTISRDNAKNTVYLQMNCLKPEDTAVYYCKRFRTAAQGTDYWGQGTQVTVSSHHHHHHLPETGGGRRRSFHDDSDEDLLHI
# B17: Fused VHH21-MMAF (conjugate)
# VHH: EVQLVESGGGLVQAGGSLRLSCAASGITFSINTMGWYRQAPGKQRELVALISSIGDTYYADSVKGRFTISRDNAKNTVYLQMNCLKPEDTAVYYCKRFRTAAQGTDYWGQGTQVTVSSHHHHHHLPETGGGRRLRKSFHDDSDEDLLHI
# B18: Fused VHH22-MMAF (conjugate)
# VHH: B17 VHH with L134R
# B19: Fused VHH23-MMAF (conjugate)
# VHH: EVQLVESGGGLVQAGGSLRLSCAASGITFSINTMGWYRQAPGKQRELVALISSIGDTYYADSVKGRFTISRDNAKNTVYLQMNCLKPEDTAVYYCKRFRTAAQGTDYWGQGTQVTVSSHHHHHHHLPETGGGRKRSHAGYQTI
# B20: Fused VHH24-MMAF (conjugate)
# VHH: EVQLVESGGGLVQAGGSLRLSCAASGITFSINTMGWYRQAPGKQRELVALISSIGDTYYADSVKGRFTISRDNAKNTVYLQMNCLKPEDTAVYYCKRFRTAAQGTDYWGQGTQVTVSSHHHHHHHLPETGGGRRRRKRKRSHAGYQTI
# B21: Fused VHH25-MMAF (conjugate)
# VHH: EVQLVESGGGLVQAGGSLRLSCAASGITFSINTMGWYRQAPGKQRELVALISSIGDTYYADSVKGRFTISRDNAKNTVYLQMNCLKPEDTAVYYCKRFRTAAQGTDYWGQGTQVTVSSHHHHHHHLPETGGGKHHHAGYEQF
# B22: Fused VHH26-MMAF (conjugate)
# VHH: EVQLVESGGGLVQAGGSLRLSCAASGITFSINTMGWYRQAPGKQRELVALISSIGDTYYADSVKGRFTISRDNAKNTVYLQMNCLKPEDTAVYYCKRFRTAAQGTDYWGQGTQVTVSSHHHHHHHLPETGGGRRLRKHHHAGYEQF
# Tested on: SKBR3 cells
# Assay: In-vitro cytotoxicity, CCK8 cell viability
# Assay type: cell-based, human
# Conditions: SKBR3, 48 h, CCK8, mean n=3; Table 7
# Method: In this example, human breast cancer cell line SKBR3 with high expression of HER2 and human ovarian cancer cell line SKOV3 with high expression of HER2 were chosen to evaluate the ability of the recombinant-fusion-antibody-drug conjugates to inhibit the growth of cancer cells. The recombinant-fusion-antibody-drug conjugates of different concentrations were added to a 96-well plate seeded with SKBR3 or SKOV3 cells. After treatment for 48 h, the viability of cells was calculated using a CCK8 kit.
# Cell viability was measured using different concentrations of MMAF, VHH0-MMAF, or different recombinant-fusion-nanobody-drug conjugates (fused VHH1-MMAF to fused VHH26-MMAF). The half-maximal inhibitory concentration IC50 was calculated (FIGS. 14A-14C, and Table 7). FIGS. 14A, 14B and 14C respectively show the viability of SKBR3 cells treated with the recombinant-fusion-nanobody-drug conjugates, including fused VHH1-MMAF to fused VHH6-MMAF, fused VHH7-MMAF to fused VHH22-MMAF, and fused VHH23-MMAF to fused VHH26-MMAF. […] Data are expressed as the mean (n=3).
# SKBR3 and SKOV3 cells were chosen to evaluate the ability of the recombinant-fusion-full-length-antibody-drug conjugates to inhibit the growth of cancer cells. […] The half-maximal inhibitory concentration IC50 was calculated.
row,Molecule,IC50 [nM]
1,B1,0.109
2,B2,0.885
3,B3,0.791
4,B4,0.791
5,B5,0.294
6,B6,0.232
7,B7,0.16
8,B8,0.14
9,B9,0.0798
10,B10,0.069
11,B11,0.051
12,B12,0.027
13,B13,0.165
14,B14,0.394
15,B15,0.564
16,B16,0.038
17,B17,0.016
18,B18,0.014
19,B19,0.098
20,B20,0.128
21,B21,0.466
22,B22,0.095
